How the values were obtained:
[1] = target: human serum albumin (HSA) (UniProt P02768)
[2] = target: streptavidin (on Dynabeads) (UniProt P22629)
[3] = target: human IgG (on Sepharose, Pharmacia) (human); test: cell-based or functional assay

UniProt P22629, sequence (P22629 whole entry, looked up): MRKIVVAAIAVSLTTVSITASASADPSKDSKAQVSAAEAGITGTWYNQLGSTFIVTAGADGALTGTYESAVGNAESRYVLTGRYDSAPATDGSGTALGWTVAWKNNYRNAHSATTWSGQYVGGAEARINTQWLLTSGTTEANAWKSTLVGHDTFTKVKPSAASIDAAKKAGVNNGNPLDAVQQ

Row | Peak area of the 190-bp extension product, heat-released enzyme (95° C.-treated Z-ΔTaq-human IgG-Sepharose) [3] | Peak area of the 190-bp extension product, immobilized enzyme (polymerase activity at 50° C.) [3] | increase of the area of the 190-peak, free or heat-released enzyme against enzyme on beads heated only to 50° C. [3] [times] | Substance | hot start PCR of K-ras (primer-dimer formation) [1] | hot-start effect in kRAS PCR (primer-dimer formation) [1] | primer extension (190 nt product) at 60° C., immobilized enzyme [1] | relative polymerase activity at 45-75° C. and after 95° C. [1] | hot-start effect in kRAS PCR (primer-dimer formation) [2]
1 | – | – | – | TagTaq fusion protein (Bio-His6-ABP fused to Taq DNA polymerase I residues 3-832) | using either a conventional hot start procedure (lane 8) or immobilized TagTaq polymerase (lanes 1 to 3), high yields of essentially pure, full-length PCR products free from primer-dimers are obtained | All the immobilised enzymes show hot-start effect in PCR with regard to preventing primer-dimer formation | TagTaq protein: HSA-Sepharose incubated with the substrate at the same temperature resulted in only very small amounts of the 190 nt extension product | TagTaq indeed is active in the presence of HSA-Sepharose, but only after incubation at a temperature high enough to break the ABP-HSA affinity interaction | All the immobilised enzymes show hot-start effect in PCR with regard to preventing primer-dimer formation
2 | 8380 | 594 | > 15 | Z-ΔTaq fusion protein (from UniProt P0AD92 1-8; P38507 212-269; P19821 236-832) (enzyme) | – | – | – | – | –
